# From the Immune Epitope Database (IEDB)
# Key:
# [1] = molecular target: HLA-B*58:01; experiment: IEDB peptide-MHC binding, purified MHC/competitive/radioactivity; filed as Kd, often an IC50 or EC50 that approximates it; ≥ and ≤ were set here for values at or beyond the usual limits of such assays
# [2] = molecular target: HLA-A*30:02; experiment: as above; details: source organism: Dengue virus 2 Jamaica/1409/1983
# [3] = molecular target: HLA-A*26:01; experiment: as above; details: source organism: Dengue virus 2 Jamaica/1409/1983
# [4] = molecular target: HLA-A*01:01; experiment: as above; details: source organism: Dengue virus 2 Jamaica/1409/1983
# [5] = molecular target: HLA-B*51:01; experiment: IEDB peptide-MHC binding, purified MHC/competitive/fluorescence; filed as Kd, often an IC50 or EC50 that approximates it; ≥ and ≤ were set here for values at or beyond the usual limits of such assays; details: source organism: Influenza A virus (A/Yokohama/22/2002(H1N2))
# [6] = molecular target: HLA-B*57:01; experiment: as above; details: source organism: Influenza A virus (A/Yokohama/22/2002(H1N2))
# [7] = molecular target: HLA-B*39:01; experiment: as above; details: source organism: Influenza A virus (A/Yokohama/22/2002(H1N2))
# [8] = molecular target: HLA-B*46:01; experiment: as above; details: source organism: Influenza A virus (A/Yokohama/22/2002(H1N2))
# [9] = molecular target: HLA-B*15:17; experiment: as above; details: source organism: Influenza A virus (A/Yokohama/22/2002(H1N2))
# [10] = molecular target: HLA-A*02:01; experiment: as above; details: source organism: Influenza A virus (A/Yokohama/22/2002(H1N2))
# [11] = molecular target: HLA-B*15:01; experiment: as above
# [12] = molecular target: HLA-B*27:03; experiment: as above; details: source organism: Influenza A virus (A/Yokohama/22/2002(H1N2))
# [13] = molecular target: HLA-A*69:01; experiment: as above; details: source organism: Influenza A virus (A/Yokohama/22/2002(H1N2))
# [14] = molecular target: HLA-A*26:01; experiment: as above; details: source organism: Influenza A virus (A/Yokohama/22/2002(H1N2))
# [15] = molecular target: HLA-B*18:01; experiment: as above; details: source organism: Influenza A virus (A/Yokohama/22/2002(H1N2))
# [16] = molecular target: HLA-A*01:01; experiment: as above; details: source organism: Influenza A virus (A/Yokohama/22/2002(H1N2))
# [17] = molecular target: HLA-A*03:01; experiment: IEDB peptide-MHC binding, purified MHC/direct/fluorescence; filed as Kd, often an IC50 or EC50 that approximates it; ≥ and ≤ were set here for values at or beyond the usual limits of such assays; details: source organism: Influenza A virus (A/England/654/2007(H1N1))
# [18] = molecular target: HLA-A*24:03; experiment: as above; details: source organism: Influenza A virus (A/England/654/2007(H1N1))
# [19] = molecular target: HLA-A*29:02; experiment: as above; details: source organism: Influenza A virus (A/England/654/2007(H1N1))
# [20] = molecular target: HLA-A*23:01; experiment: as above; details: source organism: Influenza A virus (A/England/654/2007(H1N1))
# [21] = molecular target: HLA-A*02:12; experiment: as above; details: source organism: Influenza A virus (A/England/654/2007(H1N1))
# [22] = molecular target: HLA-A*02:03; experiment: as above; details: source organism: Influenza A virus (A/England/654/2007(H1N1))
# [23] = molecular target: HLA-A*02:16; experiment: as above; details: source organism: Influenza A virus (A/England/654/2007(H1N1))
# [24] = molecular target: HLA-A*02:19; experiment: as above; details: source organism: Influenza A virus (A/England/654/2007(H1N1))
# [25] = molecular target: HLA-A*02:11; experiment: as above; details: source organism: Influenza A virus (A/England/654/2007(H1N1))
# [26] = molecular target: HLA-A*68:02; experiment: as above; details: source organism: Influenza A virus (A/England/654/2007(H1N1))
# [27] = molecular target: HLA-A*02:01; experiment: IEDB peptide-MHC binding, purified MHC/competitive/radioactivity; ≥ and ≤ were set here for values at or beyond the usual limits of such assays
# [28] = molecular target: HLA-A*24:03; experiment: IEDB peptide-MHC binding, purified MHC/competitive/fluorescence; filed as Kd, often an IC50 or EC50 that approximates it; ≥ and ≤ were set here for values at or beyond the usual limits of such assays
# [29] = molecular target: HLA-B*07:02; experiment: IEDB peptide-MHC binding, purified MHC/competitive/fluorescence; ≥ and ≤ were set here for values at or beyond the usual limits of such assays
# [30] = molecular target: HLA-B*40:01; experiment: IEDB peptide-MHC binding, purified MHC/competitive/fluorescence; filed as Kd, often an IC50 or EC50 that approximates it; ≥ and ≤ were set here for values at or beyond the usual limits of such assays
# [31] = molecular target: HLA-B*57:01; experiment: IEDB peptide-MHC binding, purified MHC/competitive/radioactivity; filed as Kd, often an IC50 or EC50 that approximates it; ≥ and ≤ were set here for values at or beyond the usual limits of such assays
# [32] = molecular target: HLA-B*07:02; experiment: IEDB peptide-MHC binding, purified MHC/competitive/fluorescence; filed as Kd, often an IC50 or EC50 that approximates it; ≥ and ≤ were set here for values at or beyond the usual limits of such assays; details: source organism: Shigella boydii CDC 3083-94
# [33] = molecular target: HLA-A*32:01; experiment: IEDB peptide-MHC binding, purified MHC/competitive/radioactivity; filed as Kd, often an IC50 or EC50 that approximates it; ≥ and ≤ were set here for values at or beyond the usual limits of such assays
# [34] = source organism: Dengue virus 2 Jamaica/1409/1983
# [35] = source organism: Zaire ebolavirus
# [36] = source organism: Dengue virus 3 Martinique/1243/1999
# [37] = source organism: Dengue virus 1 Brazil/97-11/1997
# [38] = source organism: Salmonella enterica subsp. enterica serovar Typhi
sequence,measurement,setting,value
ITASILLWY,Kd,[1]; [34],2.8 nM
same,Kd,[2],550 nM
same,Kd,[3],5.66 nM
same,Kd,[4],47.2 nM
WTGMVDGWY,Kd,[5],≥ 20000 nM
same,Kd,[6],≥ 20000 nM
same,Kd,[7],≥ 20000 nM
same,Kd,[8],≥ 20000 nM
same,Kd,[9],≥ 20000 nM
same,Kd,[10],≥ 20000 nM
same,Kd,[11]; source organism: Influenza A virus (A/Yokohama/22/2002(H1N2)),≥ 20000 nM
same,Kd,[12],≥ 20000 nM
same,Kd,[13],≥ 20000 nM
same,Kd,[14],≥ 20000 nM
same,Kd,[15],≥ 20000 nM
same,Kd,[16],10.3 nM
same,Kd,[17],≥ 20000 nM
same,Kd,[18],≥ 20000 nM
same,Kd,[19],≥ 20000 nM
same,Kd,[20],≥ 20000 nM
same,Kd,[21],≥ 20000 nM
same,Kd,[22],≥ 20000 nM
same,Kd,[23],≥ 20000 nM
same,Kd,[24],≥ 20000 nM
same,Kd,[25],≥ 20000 nM
same,Kd,[26],≥ 20000 nM
NLGNLNVSI,IC50,[27]; source organism: Hepatitis B virus subtype ayw,76 nM
VLLLWITAA,IC50,[27]; source organism: Human papillomavirus 16,11 nM
HYGTEGQEF,Kd,[28]; source organism: Escherichia coli APEC O1,2.9 nM
EPVVFSTSD,IC50,[29]; [35],≥ 144000 nM
LESAIGLPM,Kd,[30]; source organism: Shigella flexneri 5 str. 8401,7.2 nM
VLPSPACQLV,IC50,[27]; source organism: Homo sapiens,500 nM
NASDRMGMGV,Kd,[31]; [36],722 nM
same,Kd,[1]; [36],209 nM
LPYPYSSSA,Kd,[32],79.6 nM
KSWPLNEGI,Kd,[1]; [37],70.3 nM
same,Kd,[33]; [37],340 nM
KTVWFVPSI,Kd,[1]; [34],4.32 nM
same,Kd,[33]; [34],6.69 nM
AELFVAHYM,Kd,[30]; [38],10.8 nM
same,Kd,[11]; [38],≥ 20000 nM
LKNDLLENLQ,IC50,[29]; source organism: Influenza A virus (A/Victoria/1968(H3N2)),≥ 495000 nM
PSGSTSPRM,IC50,[29]; [35],≥ 202000 nM
LLALLSCLTI,IC50,[27]; source organism: Hepacivirus hominis,385 nM
VSSVNMISRM,Kd,[31]; [34],626 nM
same,Kd,[1]; [34],698 nM
QYVLMPGKV,Kd,[28]; source organism: Escherichia coli,2580 nM
